# Source: paper PMC6107515
# Read-outs that look alike come from different tables or passages of the source.
# Key:
# [1] = target: human complement Factor H (human) (UniProt P08603); test: SPR; Biacore X100; FH coupled to a CM4 chip, recombinant PspCs injected at five increasing concentrations (kinetic titration); PBS-P+ buffer; fitted with a 1:1 binding model
# [2] = target: human complement Factor H (human) (UniProt P08603); test: as above; remark: listed apart in the source
# human complement Factor H (human), sequence (P08603 19-1231): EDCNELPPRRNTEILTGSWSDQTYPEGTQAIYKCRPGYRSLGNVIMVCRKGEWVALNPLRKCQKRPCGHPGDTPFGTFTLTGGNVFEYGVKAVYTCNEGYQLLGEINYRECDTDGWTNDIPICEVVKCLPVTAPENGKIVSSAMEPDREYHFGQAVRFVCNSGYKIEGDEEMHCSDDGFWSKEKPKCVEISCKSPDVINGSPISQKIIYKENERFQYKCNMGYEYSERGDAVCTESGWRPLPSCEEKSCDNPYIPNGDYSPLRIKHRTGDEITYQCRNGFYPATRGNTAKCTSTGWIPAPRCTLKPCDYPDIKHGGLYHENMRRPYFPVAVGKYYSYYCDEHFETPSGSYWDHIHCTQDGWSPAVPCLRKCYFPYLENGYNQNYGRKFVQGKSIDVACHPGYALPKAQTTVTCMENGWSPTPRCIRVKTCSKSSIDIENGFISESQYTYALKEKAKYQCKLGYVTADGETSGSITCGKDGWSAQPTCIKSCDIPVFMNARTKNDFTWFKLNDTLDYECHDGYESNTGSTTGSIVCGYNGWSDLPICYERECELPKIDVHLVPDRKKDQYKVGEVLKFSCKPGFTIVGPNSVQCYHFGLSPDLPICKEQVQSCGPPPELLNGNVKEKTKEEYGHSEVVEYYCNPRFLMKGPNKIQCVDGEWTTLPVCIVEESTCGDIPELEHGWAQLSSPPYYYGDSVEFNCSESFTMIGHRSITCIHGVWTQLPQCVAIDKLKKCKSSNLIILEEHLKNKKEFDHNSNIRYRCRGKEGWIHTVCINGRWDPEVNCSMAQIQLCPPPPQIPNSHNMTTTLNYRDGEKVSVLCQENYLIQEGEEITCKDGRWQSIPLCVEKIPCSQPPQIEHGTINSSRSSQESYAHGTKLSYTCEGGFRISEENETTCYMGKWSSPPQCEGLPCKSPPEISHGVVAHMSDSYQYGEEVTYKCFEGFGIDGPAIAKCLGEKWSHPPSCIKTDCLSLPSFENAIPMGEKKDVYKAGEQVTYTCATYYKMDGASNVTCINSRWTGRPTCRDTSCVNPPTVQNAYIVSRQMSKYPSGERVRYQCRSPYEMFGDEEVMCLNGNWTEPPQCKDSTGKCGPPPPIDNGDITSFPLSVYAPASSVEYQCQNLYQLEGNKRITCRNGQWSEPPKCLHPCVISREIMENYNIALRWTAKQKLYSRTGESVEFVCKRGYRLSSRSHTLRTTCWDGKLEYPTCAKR
substance,measurement,setting,value
recombinant PspC (D39) (domain or fragment),Kd,[1],0.0885 nM
same,Kd,[2],0.086 nM
same,koff,[2],4.3e-05 s⁻¹
same,kon,[2],480000 M⁻¹ s⁻¹
